Data as given in patent publication US20100316616A1.

Molecular target: His-tagged mouse Wnt3a (mouse) (UniProt P27467)
Assay: cell-based or functional assay

UniProt P27467, sequence (P27467 19-352): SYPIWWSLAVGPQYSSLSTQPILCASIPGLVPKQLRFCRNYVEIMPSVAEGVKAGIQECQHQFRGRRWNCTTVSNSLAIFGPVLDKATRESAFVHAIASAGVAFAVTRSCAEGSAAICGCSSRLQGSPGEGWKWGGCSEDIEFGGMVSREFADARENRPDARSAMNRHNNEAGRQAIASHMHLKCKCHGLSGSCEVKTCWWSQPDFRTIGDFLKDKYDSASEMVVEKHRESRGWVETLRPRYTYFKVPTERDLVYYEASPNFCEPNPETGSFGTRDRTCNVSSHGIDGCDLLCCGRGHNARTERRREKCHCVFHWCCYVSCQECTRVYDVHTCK

decrease in Wnt3a-induced CRT (beta-catenin-TCF-regulated transcription), TCF-responsive reporter in HEK293T and Huh-7 cells | Substance
> 80% | human FZC18 (from UniProt P39060 216-450)
> 80% | human V3Nter (from UniProt P39060 24-497)
